Data on 1 molecule can be found in patent US20230181719A1, “NGR CONJUGATES AND USES THEREOF” (OSPEDALE SAN RAFFAELE S.R.L., priority 2020, published 2023).

Data set [1] has as its system GL261 glioblastoma. The data set is classed as in vivo, mice. The conditions noted are these: i.p., 5 ng/kg at day 7, 19 and 31. The source says: Effect of S-NGR-mTNF on the […] glioblastoma growth and animal body weight. C57BL/6J mice (9 weeks old, weighing 18-21 g) were intracranially implanted with 2.5 × 10^4 GL21-Luc2 cells.
C) Kaplan-Maier curves of vehicle and S-NGR-mTNF.
Inventors next investigated the antitumor activity of murine S-NGR-TNF (S-NGR-mTNF) in the GL261 glioblastoma model, one of the most frequently used syngeneic murine glioma models. To this aim, inventors have exploited GL261 cells genetically engineered to express luciferase (GL261-luc2). This allows in vivo visualization of tumors growth and response to treatment within the brain by bioluminescence imaging.

In a further data set the test system is L-M cells. Kind of data set: LM-cells cytolytic assay (MTT). The data set is classed as cell-based. The conditions noted are these: actinomycin D, 20 h, murine proteins. The source says: FIG. 8. Biochemical and biological characterization of murine S-NGR-TNF and NGR-TNF. A) SDS-PAGE under reducing (βMe +) and non-reducing conditions (βMe -) of murine S-NGR-TNF, NGR-TNF and TNF. Arrows: bands corresponding to monomeric subunits (mon) and reducible dimers (dim). B) Representative mass spectra of murine NGR-TNF, TNF and S-NGR-TNF as determined by a Q Exactive HF mass spectrometer. Expected average masses are shown. C) Cytotoxic activity of TNF, NGR-TNF and S-NGR-TNF against L-M cells. L-M cells were incubated in DMEM medium supplemented with 2 mM glutamine, 100 U/ml penicillin, 100 µg/ml streptomycin, 0.25 µg/ml amphotericin-B, 10% fetal bovine serum, 2 µg/ml actinomycin D and TNF, NGR-TNF or S-NGR-TNF at the indicated doses (20 h at 37° C., 5% CO2). Cell viability was quantified by standard 3-(4,5-dimethylthiazol-2-yl)-2,5-diphenyltetrazolium bromide (MTT) assay. D) Binding of TNF, NGR-TNF and S-NGR-TNF to sTNF-R1 (Etanercept). Microtiterplates were precoated with or without the indicated amount of sTNF-R1 (for 16 h), washed with PBS, blocked with PBS containing 3% milk, 1% BSA (binding buffer, 1 h) and incubated with the indicated amounts of TNF, NGR-TNF or S-NGR-TNF diluted in binding buffer (for 1.5 h). The binding of each protein to sTNF-R1 was then detected using a polyclonal anti-murine TNF (IP301, 5 µg/ml in binding buffer, 1 h) followed by a polyclonal goat anti-rabbit antibody conjugated with horseradish peroxidase (1:1000 in binding buffer, 1 h) and o-phenylendiammine as chromogenic substrate.
To assess whether the addition of a serine residue to NGR-TNF affects its capability to recognize the TNF receptors and, consequently, its biological activity, inventors then analyzed the cytotoxic activity of TNF, NGR-TNF and S-NGR-TNF in the LM-cells cytolytic assay.

The test system of data set [2] is endothelial EA.hy926 cells. Briefly: EA.hy926 endothelial cell adhesion assay on protein-coated microtiterplates. The data set is classed as cell-based. The procedure:
FIG. 12. […] A) Adhesion of endothelial EA.hy926 cells to 96-wells microtiterplates coated with different amounts of murine TNF, NGR-TNF and S-NGR-TNF in 150 mM sodium chloride, 50 mM sodium phosphate buffer, pH 7.4 (PBS) (16 h). Each well was blocked with 2% BSA in PBS containing calcium chloride and magnesium chloride (DPBS, 30 min), seeded with 40.000 endothelial EA.hy926 cells in DPBS supplemented with 0.1% BSA (DPBS-B), and left to incubate for 2 h at 37° C., 5% CO2. After washing with DMEM-B, adherent cells were stained with crystal violet and quantified by spectrophotometric measurements at 570 nm. B) Microtiterplates pre-coated with 1 µg/ml of murine NGR-TNF or S-NGR-TNF in PBS (for 16 h) were incubated 0.1 M ammonium bicarbonate buffer, pH 8.5 (Ambic) at 37° C. for the indicated time to promote NGR deamidation. EA.hy926 cell adhesion assay was then performed as described above.
This behavior likely reflects a further improvement in the CNGRCG (SEQ ID NO: 1) stability when fused to TNF.

For data set [3], the system named is GL261 glioblastoma.
Method: Mice bearing GL21-Luc2 glioblastomas (9-10 per group) were treated at day 7, 14 and 21 after tumor implantation with the S-NGR-mTNF (5 ng/kg, about 100 pg/mouse, i.p.). Two hours later, mice were injected with the indicated dose of doxorubicin (doxo, i.p.). […] Tumor growth was monitored by measuring the tumor-associated bioluminescence at day 7, 11, 14, 18, 21, and 28 after the administration of luciferin.
Bioluminescent murine glioma GL21-Luc2 cells, engineered to stably express the firefly luciferase, were orthotopically implanted in C57BL/6J mice (9 weeks-old) into the right striatum (2.5x10^4 cells/mouse). Pharmacological treatments started on the 7 days after tumor cell implantation. Mice were injected, i.p., with 5 ng/Kg dose of S-NGR-TNF (about 100 pg/mice, diluted in 0.9% sodium chloride solution containing 100 µg/ml of HSA), or in combination with doxorubicin (5 mg/Kg) administered 2 h later. Tumor growth was monitored by non-invasive bioluminescence imaging using a PhotonImager RT system (Biospace Lab, France) after luciferase substrate administration (i.p.).
The antitumor activity of S-NGR-mTNF was then investigated in combination of doxorubicin (doxo), a chemotherapeutic drug, in the GL261-luc2 model. To this aims, tumor bearing-animal were treated at day 7, 14 and 21 post tumor implantation with S-NGR-mTNF (5 ng/kg, i.p.) and 2 h later with doxo (i.p., 5 mg/kg, corresponding to about 100 µg/mouse). In parallel, control mice were treated with vehicle or doxo alone.
For data set [4], the system named is RMA-T lymphoma-bearing mice. The data set is classed as in vivo. The settings on record: high dose 2 µg and 6 µg. The procedure: FIG. 13. […] A) Effect of high-dose murine S-NGR-TNF or NGR-TNF on the body weight and tumor volume of RMA-T lymphoma- bearing mice. Six C57BL/6 mice (6-7 weeks old, weighing 18-20 g) were challenged with subcutaneous injection in the left flank of 5 ×10^4 RMA-T cells. Mice bearing RMA lymphomas (6 per group) were treated at day 11 after tumor implantation with 2 µg and 6 µg of murine NGR-TNF or S-NGR-TNF in 0.9% sodium chloride, containing 100 µg/ml endotoxin-free human albumin (i.p.) as indicated (arrows). Animal weights and tumor growth were monitored as indicated. B) Effect of melphalan alone or in combination with low-dose murine S-NGR-TNF on the body weight of RMA-T lymphoma-bearing mice.
To assess the impact of the additional serine residue added to the N-terminus of NGR-TNF on its toxicity and anti-tumor activity inventors injected high-dose NGR-TNF or S-NGR-TNF to mice bearing subcutaneous RMA-T lymphomas (n=6) and evaluated the loss of animal weight. […] Three days later the mice regained the original weight.

For a further data set, the system named is WEHI-164 fibrosarcoma. Briefly: Low-dose treatment in subcutaneous WEHI-164 fibrosarcoma murine model. The data set is classed as in vivo. The procedure:
FIG. 14. […] Balb/c mice (6-7 weeks old, weighing 18-20 g) were injected, s.c., with 1.5×10^6 WEHI-164 cells in the left flank and treated 5 days after tumor implantation (i.p.) with 25 or 50 pg of murine NGR-TNF or S-NGR-TNF in 0.9% sodium chloride, containing 100 µg/ml endotoxin-free human serum albumin (arrows). A) Tumor volumes after treatment (mean±SE, 6 mice per group). B) Tumor weight at day 15 (cumulative data of the two groups treated with 25 and 50 pg of drugs). *, P<0.05, **P<0.01 by unpaired t test of the area under the curve for each tumor (GraphPad Prism software).
To assess whether the addition of the Ser residue to NGR-TNF might affect its anti-tumor activity at low dose, inventors then analyzed the therapeutic activity of NGR-TNF and S-NGR-TNF (25 or 50 pg, i.p.) using the subcutaneous WEHI-164 fibrosarcoma murine model.

The test system of the next data set is RMA lymphoma. The data set is classed as in vivo, mice. The procedure:
FIG. 15. […] C57BL/6 mice (6-7 weeks old, weighing 18-20 g) were challenged with subcutaneous injection in the left flank of 7×10^4 RMA cells. Mice bearing RMA lymphomas (6 per group) were treated 10-11 days (after tumor implantation with 100 pg of murine NGR-TNF or S-NGR-TNF (i.p.). Two hours later, the mice were injected with the indicated dose of melphalan (i.p.). All proteins were diluted with 0.9% sodium chloride, containing 100 µg/ml endotoxin-free human albumin. Tumor growth was monitored daily by measuring the tumors with calipers. A-B) Tumor volume change of two independent experiments are shown (mean±SE). […] C) Tumor bearing-animals were treated at day 10 after tumor implantation as indicated above using the indicated dose of S-NGR-TNF and the generic preparation of melphalan (Melphalan-Tillomed, from Tillomed Italia). RMA tumor weight at day 20 are shown (mean±SE). *, P<0.05, **P<0.01 by unpaired t test analysis with the GraphPad Prism software.
Effect of melphalan alone or in combination with low-dose murine S-NGR-TNF on the body weight and tumor growth of RMA-T lymphoma-bearing mice. Six tumor-bearing mice were injected with the indicated doses of S-NGR-TNF (i.p) and, two hours later, with the generic preparation of melphalan (Melphalan-Tillomed) (i.p.).
Finally, to assess whether low-dose S-NGR-TNF can exert synergistic effects with chemotherapy, as previously observed for NGR-TNF, inventors performed in vivo experiments with S-NGR-TNF and NGR-TNF in combination with melphalan, a chemotherapeutic drug, using the murine RMA lymphoma model (FIG. 15).

Where two headings read alike, the source gives them in different places.

B1: S-NGR-TNF: Murine SCNGRCG-TNF fusion protein: serine residue added to the N-terminus of NGR-TNF (SEQ ID NO: 26) (protein)
chain: SCNGRCGLRSSSQNSSDKPVAHVVANHQVEEQLEWLSQRANALLANGMDLKDNQLVVPADGLYLVYSQVLFKGQGCPDYVLLTHTVSRFAISYQEKVNLLSAVKSPCPKDTPEGAELKPWYEPIYLGGVFQLEKGDQLSAEVNLPKYLDFAESGQVYFGVIAL
B1: in the data set on GL261 glioblastoma [1], the “gain of body weight of cured animals” value is reported as “about +15%” and the tumor growth result was “significantly delayed tumor growth”. Besides, in the data set on L-M cells, the EC50 cytotoxic activity result is given as “very similar”. Moreover, in data set [2] (plates coated in PBS, no forced deamidation), the “EA.hy926 cell adhesion to coated plates” value is recorded as “not”. In data set [2] (plates treated with 0.1 M ammonium bicarbonate buffer, pH 8.5, compared to NGR-TNF), the “EA.hy926 cell adhesion after forced deamidation” value is on record as “a longer time of incubation under deamidation conditions was necessary”. Moreover, the “mice with delayed tumor growth” value in the data set with GL261 glioblastoma [3] (S-NGR-mTNF 5 ng/kg i.p. and 2 h later doxo 5 mg/kg, day 7, 14, 21) was 55%. For the same molecule, the “toxicity of doxo, judged from loss of animal weight” value in the data set on GL261 glioblastoma [3] (S-NGR-mTNF 5 ng/kg with doxo 5 mg/kg) is “did not exacerbate the toxicity of doxo”. Further, the tumor growth entry in the data set with GL261 glioblastoma [3] (S-NGR-mTNF 5 ng/kg with doxo 5 mg/kg (combination therapy)) is given as “could significantly delay tumor growth”. Moreover, the “antitumor effects compared to NGR-TNF” value in data set [4] is listed as “slightly stronger antitumor effects”. Also, the “anti-tumor effects compared to 25 pg of NGR-TNF” value in the data set on WEHI-164 fibrosarcoma (25 pg) is listed as “slightly stronger anti-tumor effects”. In the data set on WEHI-164 fibrosarcoma (25 or 50 pg, i.p.), the toxicity entry was “No evidence of toxicity” and the tumor growth entry is given as “delayed tumor growth to similar extent”. For the same molecule, the “efficacy of melphalan in combination” value with RMA lymphoma (100 pg i.p., melphalan two hours later) is reported as “could enhance the efficacy of melphalan”. The “antitumor activity of combination” value in the data set with RMA lymphoma (S-NGR-TNF 100 pg with melphalan 50 µg) is listed as “significant increase of antitumor activity”. The “antitumor effect compared to NGR-TNF” value in the data set on RMA lymphoma (in combination with melphalan) is “slightly stronger antitumor effect”.
